Eleven compounds from patent US20030211979A1, “FAP-activated anti-tumor compounds” (Boehringer Ingelheim Pharma GmbH & Co. KG, priority 2002, published 2003) can be followed below.

Test system in one series: not listed separately
Briefly: Solubility test in a phosphate buffer. Type of series: physicochemical.
Details: not given
An excerpt:
The solubilities of the compounds of formula
in a phosphate buffer have been compared.
With `COc1cccc2c1C(=O)c1c(O)c3c(c(O)c1C2=O)C[C@@](O)(C(=O)CO)C[C@@H]3OC1CC(NC(=O)[C@@H]2CCCN2C(=O)CNC(=O)[C@H](C)NC(=O)[C@@H]2CCCN2C(=O)Cc2ccccc2)C(O)C(C)O1` (some centres unmarked) [B, reference compound], the solubility (usually how much of the substance goes into solution per volume) is less than 2000 µg/mL.

The target of another series is T1, FAP (Homo sapiens, UniProt Q12884).
T1 construct: expressed in transfected cells; host or cells: 293 cells stably transfected with FAP; cell extract
T1 sequence (Q12884 1-760): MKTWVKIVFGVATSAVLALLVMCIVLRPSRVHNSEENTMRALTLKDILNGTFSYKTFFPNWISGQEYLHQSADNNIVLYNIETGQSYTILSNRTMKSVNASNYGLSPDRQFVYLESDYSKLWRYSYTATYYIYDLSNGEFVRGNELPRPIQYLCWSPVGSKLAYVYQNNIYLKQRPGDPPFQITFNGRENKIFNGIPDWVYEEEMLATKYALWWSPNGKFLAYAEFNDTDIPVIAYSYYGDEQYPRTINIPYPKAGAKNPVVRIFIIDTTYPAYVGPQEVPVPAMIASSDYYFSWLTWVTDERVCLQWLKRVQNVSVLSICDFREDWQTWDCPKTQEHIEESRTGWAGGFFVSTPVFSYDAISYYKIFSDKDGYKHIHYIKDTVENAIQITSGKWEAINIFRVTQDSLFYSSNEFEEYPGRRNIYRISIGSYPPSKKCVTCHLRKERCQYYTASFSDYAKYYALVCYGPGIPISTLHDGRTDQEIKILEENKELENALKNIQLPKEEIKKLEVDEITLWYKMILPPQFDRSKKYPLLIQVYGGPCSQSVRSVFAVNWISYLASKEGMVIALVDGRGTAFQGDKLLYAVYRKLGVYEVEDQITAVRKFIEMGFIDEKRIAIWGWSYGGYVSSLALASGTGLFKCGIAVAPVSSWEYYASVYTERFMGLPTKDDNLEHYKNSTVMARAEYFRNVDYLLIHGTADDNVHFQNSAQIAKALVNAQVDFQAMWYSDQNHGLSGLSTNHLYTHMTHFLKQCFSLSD
Briefly: Assay for cleavage of MNA substrates by FAP. Type of series: biochemical. As to conditions: 1 ng FAP enzyme (extract of FAP-transfected 293 cells), 20 μl 2.5 mM substrate, 1 hour at room temperature, fluorescence Ex 355/Em 405 nm, FAP-negative 293 control subtracted. As for the experimental part:
Assay for Cleavage of MNA Substrates by FAP: Buffer A: 100 mM Tris HCl pH 7.8, 100 mM NaCl Cell extract from 293 cells stably transfected with FAP prepared as described (see Park, et al., Fibroblast Activation Protein, a Dual Specificity Serine Protease expressed in human tumor stromal fibroblasts. (1999) J. Biol. Chem. 36505-12.). A similar extract was also prepared from parental 293 control cells without FAP. The FAP concentration in the FAP-transfected cell extract was estimated by immunoassay and 1 ng enzyme (diluted in buffer A) was used per assay. FAP-negative 293 control cell extract was used at the same dilution (also in buffer A) as a negative control. Substrate was initially dissolved in dimethylformamide at a concentration of 200 mM and diluted in buffer A to a final concentration of 2.5 mM. A few substrates were not soluble at this concentration and had to be diluted further. Assay Conditions: 10 μl 10% DMSO in buffer A 70 μl diluted FAP cell extract containing 1 ng FAP enzyme (OR control 293 cell extract without FAP) 20 μl 2.5 mM substrate Mix, incubate at room temperature for 1 hour, and measure fluorescence in Fluorostar fluorimeter at the following wavelengths: MNA conjugates: Excitation: 355 nm, Emission: 405 nm. The fluorescence measured in the samples treated with control 293 control cell extracts without FAP is subtracted from the values measured in the samples treated with 1 ng FAP enzyme.
Consider “[2-(3-Carboxymethyl-phenyl)-acetyl]-N-MeVal-Ala-Gly-Pro-MNA (VAGP; N-terminal 3-carboxymethylphenylacetyl, N-methyl; C-terminal MNA; printed: Val-Ala-Gly-Pro-)”, for which the Cleavage is 9.52 µM.
On the same count and under the same terms, in the case of “[2-(3-Carboxymethyl-phenyl)-acetyl]-N-MeIle-Ala-Gly-Pro-MNA (IAGP; N-terminal 3-carboxymethylphenylacetyl, N-methyl; C-terminal MNA; printed: Ile-Ala-Gly-Pro-)” it was 15.36 µM; in that of “[2-(3-Carboxymethyl-phenyl)-acetyl]-N-MeLeu-Ala-Gly-Pro-MNA (LAGP; N-terminal 3-carboxymethylphenylacetyl, N-methyl; C-terminal MNA; printed: Leu-Ala-Gly-Pro-)”, 12.00 µM.
“[2-(4-Carboxymethyl-phenyl)-acetyl]-N-MeVal-Ala-Gly-Pro-MNA (VAGP; N-terminal 4-carboxymethylphenylacetyl, N-methyl; C-terminal MNA; printed: Val-Ala-Gly-Pro-)” showed a Cleavage of 13.39 µM.
Still for that read-out and setting: the value for “[2-(4-Carboxymethyl-phenyl)-acetyl]-N-MeIle-Ala-Gly-Pro-MNA (IAGP; N-terminal 4-carboxymethylphenylacetyl, N-methyl; C-terminal MNA; printed: Ile-Ala-Gly-Pro-)” was 16.36 µM; that for “[2-(4-Carboxymethyl-phenyl)-acetyl]-Pro-Ala-Gly-Pro-MNA (PAGP; N-terminal 4-carboxymethylphenylacetyl; C-terminal MNA; printed: Pro-Ala-Gly-Pro-)” was 7.25 µM.
On the same count and under the same terms, in the case of “[2-(2-Carboxymethyl-phenyl)-acetyl]-Pro-Ala-Gly-Pro-MNA (PAGP; N-terminal 2-carboxymethylphenylacetyl; C-terminal MNA; printed: Pro-Ala-Gly-Pro-)” it was 0.94 µM.
Regarding “[2-(4-Carboxymethyl-phenyl)-acetyl]-Aze-Ala-Gly-Pro-MNA”, the Cleavage was determined as 9.54 µM.
On to “[2-(4-Carboxymethyl-phenyl)-acetyl]-N-MeLeu-Ala-Gly-Pro-MNA (LAGP; N-terminal 4-carboxymethylphenylacetyl, N-methyl; C-terminal MNA; printed: Leu-Ala-Gly-Pro-)”, for which the Cleavage is 13.97 µM.
Same read-out and setting: the value for “[2-(3-Carboxymethyl-phenyl)-acetyl]-Pro-Ala-Gly-Pro-MNA (PAGP; N-terminal 3-carboxymethylphenylacetyl; C-terminal MNA; printed: Pro-Ala-Gly-Pro-)” was 2.80 µM.
